Reference: patent publication US20260265385A1, “CD122 BINDING AGENTS AND METHOD OF USING SAME” (AnaptysBio, Inc., priority 2022, published 2026)

T1: IL-2RB (Homo sapiens, UniProt P14784)
T1 sequence (P14784 27-551): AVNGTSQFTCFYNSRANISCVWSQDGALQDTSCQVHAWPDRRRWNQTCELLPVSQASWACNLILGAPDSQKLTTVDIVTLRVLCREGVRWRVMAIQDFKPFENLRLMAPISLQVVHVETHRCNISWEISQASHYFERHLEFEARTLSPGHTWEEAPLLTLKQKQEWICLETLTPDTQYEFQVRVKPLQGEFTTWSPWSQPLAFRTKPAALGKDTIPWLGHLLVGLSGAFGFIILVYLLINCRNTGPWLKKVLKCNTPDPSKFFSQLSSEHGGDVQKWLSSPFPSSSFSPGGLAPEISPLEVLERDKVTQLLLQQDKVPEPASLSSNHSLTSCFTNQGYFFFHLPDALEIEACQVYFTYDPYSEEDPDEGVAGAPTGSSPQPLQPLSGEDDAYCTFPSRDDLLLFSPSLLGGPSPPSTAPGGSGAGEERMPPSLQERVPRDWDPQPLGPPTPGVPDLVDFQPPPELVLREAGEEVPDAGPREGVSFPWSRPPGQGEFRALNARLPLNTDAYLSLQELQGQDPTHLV

T2: Human IL-2Rβ (Homo sapiens, UniProt P14784)
T2 construct: corresponding to residues Ala1-Thr215 of the extracellular domains excluding the signal peptide
T2 sequence (P14784 26-240 limits assumed): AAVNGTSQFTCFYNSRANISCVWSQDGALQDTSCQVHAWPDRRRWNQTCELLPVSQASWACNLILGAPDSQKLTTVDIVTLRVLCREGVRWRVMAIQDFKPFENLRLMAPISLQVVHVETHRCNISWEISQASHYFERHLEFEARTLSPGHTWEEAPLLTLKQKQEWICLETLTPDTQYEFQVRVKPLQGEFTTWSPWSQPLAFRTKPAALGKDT

T3: Cynomolgus IL-2Rβ (Macaca fascicularis, UniProt Q38J85)
T3 construct: corresponding to residues Ala1-Thr215 of the extracellular domains excluding the signal peptide
T3 sequence (Q38J85 26-240 limits assumed): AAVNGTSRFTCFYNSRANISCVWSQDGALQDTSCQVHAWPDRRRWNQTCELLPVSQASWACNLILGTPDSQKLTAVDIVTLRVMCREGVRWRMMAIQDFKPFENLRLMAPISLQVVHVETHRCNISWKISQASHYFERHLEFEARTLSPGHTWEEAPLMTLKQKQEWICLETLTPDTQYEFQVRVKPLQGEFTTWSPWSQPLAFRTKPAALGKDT


Experiments:
[1] = test system: PHA-stimulated primary human T cell blasts; test: IL-2- or IL-15-induced proliferation of PHA-stimulated T cell blasts (CTG); format: cell-based; settings: IL-2 (15 pM) or IL-15 (150 pM) induced proliferation, IgG4 antibodies, compared with upadacitinib, FIG. 4
Description: Primary human PBMCs were isolated from whole blood donors, and stimulated in cuture for 3 days with 5 μg/mL PHA in a T75 flask. Cells were washed, counted, and plated at 100,000 cells/well in a 96-well plate. Antibodies were titrated at the concentrations indicated in FIG. 4, starting at 100 nM with 1:3 dilutions, and added to the cells. Recombinant IL-2 (15 pM) or IL-15 (150 pM) were added to the cells. Cells were cultured for an additional three days. SteadyGlo substrate was added for 10 minutes and the plates were read on the GloMax machine. Data were analyzed using Graphpad Prism software.

IL-2RB = target: T1, IL-2RB; test: Ability to block IL-2 (SPR assay); format: binding; settings: chimeric antibodies
Human IL-2Rβ = target: T2, Human IL-2Rβ; test: SPR binding affinity to recombinant human IL-2Rβ (Biacore); settings: 1:1 binding model
Description: (§1) Surface plasmon resonance (SPR) was used to determine the binding affinities. The M6-1625 and M10-1275 antibodies were captured onto a Cytiva Protein A Chip for 60 seconds at 0.5 μg/mL for 60 seconds. The antibodies were exposed to recombinant human LL-2Rβ or cynomolgus LL-2Rβ (corresponding to residues Ala1-Thr215 of the extracellular domains excluding the signal peptide) at typical concentrations ranging from 0.4 nM to 11 nM with typical 300 second associations and 1200 second dissociations using a BiacoreS200 instrument. Sensorgrams were fit globally using a 1:1 binding model in the Biacore T200 Evaluation Software to calculate on- and off-rates and KD values.

Cynomolgus IL-2Rβ = target: T3, Cynomolgus IL-2Rβ; test: SPR binding affinity to recombinant cynomolgus IL-2Rβ (Biacore); settings: 1:1 binding model
Description: as §1

[2] = test system: xenogeneic NSG(huIL-15Tg)/Hu-PBMC Graft vs. Host Disease (GvHD) model; test: Xenogeneic NSG(huIL-15Tg)/Hu-PBMC GvHD model, Example 14; format: in vivo, mice; settings: 10 mg/kg, 3 mg/kg, or 1 mg/kg intraperitoneally twice weekly for 4 weeks; FIG. 14
Description: A xenogeneic NSG(huIL-15Tg)/Hu-PBMC GvHD model testing the efficacy of the anti-CD122 antibody disclosed herein was performed at The Jackson laboratory JAX® In Vivo Pharmacology Services (Sacramento, CA). NOD-scidIL2rγ^null (NSG) human IL-15 transgenic mice were irradiated with 1 Gy followed by intravenous injection of human PBMCs in each mouse. APE15428 (IgG1-LALA) was dosed intraperitoneally at 10 mg/kg, 3 mg/kg, or 1 mg/kg twice weekly for 4 weeks starting the day following PBMC injection. Disease was monitored three times weekly by body weight loss, death, and GvHD scores measuring: weight loss, activity, fur texture, paleness, and posture.

Molecule | Kd (Human IL-2Rβ) [nM] | Kd (Cynomolgus IL-2Rβ) [nM] | further results
M10-1275: anti-CD122 IgG4 antibody of the M10-1275 class tested in Example 4; APE number not stated (antibody, V domains shown) VH: DVQLQQSGAELARPGASVKLSCTVSGFNFKDSLMHWVTQGPERGLRWIGWIDSENGETEYAPGFQDKATITADTSSSTVYLHLSSLTSEDTAIYYCARGGPWFLSYWGPGTTLTVSS VL: DIVLTQTPATLSVTPGDSVSLSCRASQIISNNLHWYQQKSHESPRLLIIYGLQSISGIPYRFSGRRSGTDFTLNINSVEIEDFGMYFCQQSNNWPWTFGGGTKLDIRR |  |  | blocking IL-2 and IL-15 [1]: better than upadacitinib
APE12705: M10-1275 series anti-CD122 antibody (chimeric in Table 3), VH SEQ ID NO: 1, VL SEQ ID NO: 25 (antibody, V domains shown) VH: DVQLQQSGAELARPGASVKLSCTVSGFNFKDSLMHWVTQGPERGLRWIGWIDSENGETEYAPGFQDKATITADTSSSTVYLHLSSLTSEDTAIYYCARGGPWFLSYWGPGTTLTVSS VL: DIVLTQTPATLSVTPGDSVSLSCRASQIISNNLHWYQQKSHESPRLLIIYGLQSISGIPYRFSGRRSGTDFTLNINSVEIEDFGMYFCQQSNNWPWTFGGGTKLDIRR |  |  | Blocking (IL-2 down) (IL-2RB): Partial
APE15170: M10-1275 series anti-CD122 antibody, VH SEQ ID NO: 23, VL SEQ ID NO: 35 (antibody, V domains shown, IgG4P format) VH: EVQLVQSGAEVKKPGATVKISCKVSGFNFKESLIHWVQQAPGKGLEWMGWIDNEAGETEYAPGFQDRVTITADTSTDTAYMELSSLRSEDTAVYYCARGGPWFLSYWGQGTTVTVSS VL: EIVMTQSPATLSVSPGERATLSCRASQIISNNLHWYQQKPGQAPRLLIIYGLQSISGIPARFSGSRSGTEFTLTISSLQSEDFAVYFCQQSNNFPWTFGQGTKLEIKR | 0.0128 | 0.00487 | 
APE15446: M10-1275 series anti-CD122 antibody, VH SEQ ID NO: 24, VL SEQ ID NO: 35 (antibody, V domains shown) VH: EVQLVQSGAEVKKPGATVKISCKVSGFNFKESLIHWVQQAPGKGLEWMGWIDNEAGETEYAPGFQDRVTITADTSTDTAYMELSSLRSEDTAVYYCARGGPWFLSYWGQGTTVTVSS VL: EIVMTQSPATLSVSPGERATLSCRASQIISNNLHWYQQKPGQAPRLLIIYGLQSISGIPARFSGSRSGTEFTLTISSLQSEDFAVYFCQQSNNFPWTFGQGTKLEIKR | 0.0107 | 0.00415 | 
APE15428: M6-p1625 series anti-CD122 antibody, VH SEQ ID NO: 69, VL SEQ ID NO: 77 (antibody, V domains shown, IgG1 LALA Fc format) VH: QVQLVQSGAEVKKPGASVKVSCKASGYTFTRFWIQWVRQAPGQGLEWMGEILPGSGSINHNEKFQGRVTMTRDTSTSTVYMELSSLRSEDTAVYYCTRHYGSFDYWGQGTTVTVSS VL: DIQMTQSPSSLSASVGDRVTITCKASQNVGTDVAWYQQKPGKAPKSLIYSASYRYSGVPSRFSGSGSGTDFTLTISSLQPEDFATYFCHQYESYPFTFGQGTKLEIKR | 0.0567 | 0.0765 | median time to survival vs. isotype control [2]: statistically significant efficacy
APE15295: M6-p1625 series anti-CD122 antibody, VH SEQ ID NO: 68, VL SEQ ID NO: 77 (antibody, V domains shown, IgG4P format) VH: QVQLVQSGAEVKKPGASVKVSCKASGYTFTRFWIQWVRQAPGQGLEWMGEILPGSGSINHNEKFQGRVTMTRDTSTSTVYMELSSLRSEDTAVYYCTRHYGSFDYWGQGTTVTVSS VL: DIQMTQSPSSLSASVGDRVTITCKASQNVGTDVAWYQQKPGKAPKSLIYSASYRYSGVPSRFSGSGSGTDFTLTISSLQPEDFATYFCHQYESYPFTFGQGTKLEIKR | 0.0557 | 0.0707 | 
M6-1625: anti-CD122 IgG4 antibody of the M6-p1625 class tested in Example 4; APE number not stated (antibody, V domains shown) VH: QVQLQQSGAELMKPGASVKISCKSTGYTFSRYWIEWVKQRPGHGLEWIGEILPGSGSINHNEKFQGKATFTADTSSNTVYMQLSSLTSEDSAVYFCTRHYGSFDYWGQGTTLTVSS VL: EIVMTQSPKFMSTSVGDRVSVTCKASQNVGTDVAWYQQKPGQSPKALIYSASYRYNGVPDRFTGSGSGTDFTLTISNVQSEDLAEYFCHQYSSYPFTFGSGTKLEIKR |  |  | blocking IL-2 and IL-15 [1]: better than upadacitinib
APE12383: M6-p1625 series anti-CD122 antibody (chimeric in Table 3), VH SEQ ID NO: 37, VL SEQ ID NO: 70 (antibody, V domains shown) VH: QVQLQQSGAELMKPGASVKISCKSTGYTFSRYWIEWVKQRPGHGLEWIGEILPGSGSINHNEKFQGKATFTADTSSNTVYMQLSSLTSEDSAVYFCTRHYGSFDYWGQGTTLTVSS VL: EIVMTQSPKFMSTSVGDRVSVTCKASQNVGTDVAWYQQKPGQSPKALIYSASYRYNGVPDRFTGSGSGTDFTLTISNVQSEDLAEYFCHQYSSYPFTFGSGTKLEIKR |  |  | Blocking (IL-2 down) (IL-2RB): Blocker
